Results reported in US9688764B2, “Methods of treating breast cancer by administering anti-human prolactin receptor (PRLR) antibodies” (REGENERON PHARMACEUTICALS, INC., priority 2013, dated 2017).

T1: HEK293/hPRLR (Homo sapiens, UniProt P16471)
T1 construct: HA; expressed in transfected cells; host or cells: HEK293
T1 sequence (P16471 25-622): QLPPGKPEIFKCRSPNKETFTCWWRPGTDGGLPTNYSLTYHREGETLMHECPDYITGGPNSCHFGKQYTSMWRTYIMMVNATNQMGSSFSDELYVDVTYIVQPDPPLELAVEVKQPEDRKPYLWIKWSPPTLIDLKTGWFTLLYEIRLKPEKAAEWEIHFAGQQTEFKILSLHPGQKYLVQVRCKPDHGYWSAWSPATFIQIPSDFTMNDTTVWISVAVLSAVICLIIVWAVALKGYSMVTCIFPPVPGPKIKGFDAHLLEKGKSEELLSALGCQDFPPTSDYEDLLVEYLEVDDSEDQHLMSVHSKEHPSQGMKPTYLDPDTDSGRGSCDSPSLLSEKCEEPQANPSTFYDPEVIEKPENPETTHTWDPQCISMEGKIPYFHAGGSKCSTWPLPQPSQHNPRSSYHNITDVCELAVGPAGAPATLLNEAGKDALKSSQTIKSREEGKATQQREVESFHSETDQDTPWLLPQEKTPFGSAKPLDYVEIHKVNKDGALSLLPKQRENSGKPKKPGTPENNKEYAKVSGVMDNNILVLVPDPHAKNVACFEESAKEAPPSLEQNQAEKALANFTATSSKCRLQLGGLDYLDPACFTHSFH

T2: HEK293/mPRLR (Mus musculus, UniProt Q08501)
T2 construct: HA; expressed in transfected cells; host or cells: HEK293
T2 sequence (Q08501 20-608): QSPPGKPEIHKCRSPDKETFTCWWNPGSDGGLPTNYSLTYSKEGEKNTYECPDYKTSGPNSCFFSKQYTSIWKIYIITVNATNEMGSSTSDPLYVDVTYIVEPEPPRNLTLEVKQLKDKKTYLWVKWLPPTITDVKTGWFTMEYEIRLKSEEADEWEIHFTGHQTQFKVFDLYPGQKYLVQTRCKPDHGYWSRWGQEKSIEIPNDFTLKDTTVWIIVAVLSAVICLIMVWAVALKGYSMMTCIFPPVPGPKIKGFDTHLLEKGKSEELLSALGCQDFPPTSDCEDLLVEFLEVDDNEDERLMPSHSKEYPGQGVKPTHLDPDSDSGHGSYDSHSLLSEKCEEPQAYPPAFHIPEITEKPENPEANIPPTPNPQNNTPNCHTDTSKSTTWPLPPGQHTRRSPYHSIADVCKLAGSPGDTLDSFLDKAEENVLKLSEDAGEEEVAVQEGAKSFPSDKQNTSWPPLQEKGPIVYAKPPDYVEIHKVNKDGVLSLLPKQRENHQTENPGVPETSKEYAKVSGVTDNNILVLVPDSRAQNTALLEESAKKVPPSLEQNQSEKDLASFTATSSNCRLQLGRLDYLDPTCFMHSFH

T3: T47D (native PRLR expressing cell line) (Homo sapiens, UniProt P16471)
T3 construct: a native PRLR expressing cell line (T47D); endogenous in cells; host or cells: T47D
T3 sequence (P16471 25-622): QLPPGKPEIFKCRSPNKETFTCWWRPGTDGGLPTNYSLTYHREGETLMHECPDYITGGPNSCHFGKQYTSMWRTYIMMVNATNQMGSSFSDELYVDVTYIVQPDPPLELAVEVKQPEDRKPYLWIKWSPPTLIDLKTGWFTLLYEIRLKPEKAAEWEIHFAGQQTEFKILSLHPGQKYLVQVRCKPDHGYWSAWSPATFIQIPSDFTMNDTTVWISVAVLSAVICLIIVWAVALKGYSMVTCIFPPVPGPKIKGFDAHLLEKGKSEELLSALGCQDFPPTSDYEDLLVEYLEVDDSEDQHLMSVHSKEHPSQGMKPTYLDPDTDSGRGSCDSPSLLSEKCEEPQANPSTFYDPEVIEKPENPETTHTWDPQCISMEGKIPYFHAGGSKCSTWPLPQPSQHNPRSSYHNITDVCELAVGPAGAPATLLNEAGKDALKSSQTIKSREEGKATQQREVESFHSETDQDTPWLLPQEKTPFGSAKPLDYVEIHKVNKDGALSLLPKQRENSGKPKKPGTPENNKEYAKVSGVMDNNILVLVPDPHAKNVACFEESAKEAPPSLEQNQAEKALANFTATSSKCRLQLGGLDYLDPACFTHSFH


What was measured:
HEK293/hPRLR = target: T1, HEK293/hPRLR; test: FACS cell surface binding
In short: (§1)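 HEK293 lines stably expressing HA-tagged human, cynomolgus or mouse PRLR, native-expressing T47D and parental HEK293 tested by flow cytometry. Cells (1×10^5) stained with primary antibody 30 min on ice, then PE anti-human secondary; MFI expressed as fold over isotype control.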

HEK293/mPRLR = target: T2, HEK293/mPRLR; test: FACS cell surface binding
In short: as §1

[1] = test system: HEK293 (non-expressing parental cells); test: FACS cell surface binding
In short: as §1

[2] = target: T3, T47D (native PRLR expressing cell line); test: FACS cell surface binding
In short: as §1

[3] = target: T4, hPRLR.mFc (soluble dimeric human PRLR) (Homo sapiens, UniProt P16471); test: Surface plasmon resonance (Biacore T200), mAb-capture format; format: binding; details: antibody-capture format, analyte hPRLR.mFc
T4 construct: dimeric (hPRLR.mFc)
In short: (§2)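 On a Biacore T200, PRLR analytes—dimeric human hPRLR.mFc or monomeric human or cynomolgus .mmh constructs—flowed over IgG1 antibodies captured by anti-human Fc. Association and dissociation rate constants fitted to 1:1 model.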

[4] = target: T5, hPRLR.mmh (soluble monomeric human PRLR) (Homo sapiens, UniProt P16471); test: as above; format: binding; details: antibody-capture format, analyte hPRLR.mmh
T5 construct: soluble monomeric (hPRLR.mmh); mmh (myc-myc-hexahistidine)
In short: as §2

[5] = target: mfPRLR.mmh (monomeric macaca fascicularis PRLR); test: as above; format: binding; details: antibody-capture format, analyte mfPRLR.mmh
In short: as §2

Sequence of mfPRLR.mmh (monomeric macaca fascicularis PRLR) (as listed by the source): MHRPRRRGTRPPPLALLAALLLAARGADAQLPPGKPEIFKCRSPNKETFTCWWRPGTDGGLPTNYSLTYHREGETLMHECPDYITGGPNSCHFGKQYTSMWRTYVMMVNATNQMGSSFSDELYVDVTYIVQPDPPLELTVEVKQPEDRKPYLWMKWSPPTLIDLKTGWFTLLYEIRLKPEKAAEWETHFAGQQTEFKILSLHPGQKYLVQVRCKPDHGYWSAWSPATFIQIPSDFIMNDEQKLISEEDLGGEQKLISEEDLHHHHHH
T5 sequence (P16471 with tags, fused parts or gaps): as the sequence (as listed by the source) above, with V105I, T139A, M154I, T187I, I236T counted along it
T4 sequence (P16471 with tags, fused parts or gaps): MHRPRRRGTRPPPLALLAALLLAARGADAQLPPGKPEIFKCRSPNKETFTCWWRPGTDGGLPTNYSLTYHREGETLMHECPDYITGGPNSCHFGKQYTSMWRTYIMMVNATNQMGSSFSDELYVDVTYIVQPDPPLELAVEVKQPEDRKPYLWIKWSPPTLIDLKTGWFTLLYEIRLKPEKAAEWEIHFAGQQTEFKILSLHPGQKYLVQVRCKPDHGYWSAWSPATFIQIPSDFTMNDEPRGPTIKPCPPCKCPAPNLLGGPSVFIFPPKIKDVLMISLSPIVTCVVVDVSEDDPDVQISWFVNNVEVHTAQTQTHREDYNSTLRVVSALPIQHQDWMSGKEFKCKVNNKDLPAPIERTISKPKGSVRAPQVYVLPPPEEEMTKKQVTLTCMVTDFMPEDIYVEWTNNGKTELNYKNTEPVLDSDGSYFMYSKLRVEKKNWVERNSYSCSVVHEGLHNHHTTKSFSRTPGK

Row | Molecule | FACS Cell Binding (Fold Above Background) (HEK293/hPRLR) | FACS Cell Binding (Fold Above Background) (HEK293/mPRLR) | FACS Cell Binding (Fold Above Background) [1] [Fold Above Background] | FACS Cell Binding (Fold Above Background) [2] [Fold Above Background] | Kd ([3]; 25° C.) [nM] | T½ ([3]; 25° C.) [min] | Kd ([3]; 37° C.) [nM] | T½ ([3]; 37° C.) [min] | Kd ([4]; 25° C.) [nM] | T½ ([4]; 25° C.) [min] | Kd ([4]; 37° C.) [nM] | T½ ([4]; 37° C.) [min] | Kd ([5]; 25° C.) [nM] | T½ ([5]; 25° C.) [min] | Kd ([5]; 37° C.) [nM] | T½ ([5]; 37° C.) [min]
1 | H1H6801P: anti-PRLR antibody, human IgG1 Fc; HCVR/LCVR SEQ ID NOs 210/218 (antibody, V domains shown, human IgG1 Fc) VH: QVQLQQSGPGLVKPSQTLSLTCVISGDSVSSNTAWNWVRQSPSRGLEWLGRTYYRSKWYNDYAVSVKSRITINPDTSKNQFSLLMNSVTPEDTAVYYCARVVRGLNYFDYWGQGTLVTVSS VL: DIVMTQSPDSLAVSLGERATINCKSSQSVLYNSNNKNYLAWYQQKPGQPPKLLIYWSSSRESGVPDRFSGSGSGTDFTLTISGLQAEDVAIYYCQQYSTIPYTFGQGTKLEIK | 47 | 56 | 7 | 45 | 0.161 | 106 | 0.279 | 52 | 0.894 | 15 | 4.63 | 3 | 1.88 | 9 | 10.8 | 1
2 | H1H6795P: anti-PRLR antibody, human IgG1 Fc; HCVR/LCVR SEQ ID NOs 162/170 (antibody, V domains shown, human IgG1 Fc) VH: QVQLVQSGAEVKKPGASVKVSCKASGYTFGTSGITWVRQAPGQGLEWMGWSSAYNGKTDYAQKFQDRVTMTTDTSTTTGYMEMRSLTSDDTAVYYCTTVVRRPFDFWGQGTLVTVSS VL: DIQMTQSPSSLSASVGDRVTITCRASQDINNFLAWFQQKPGKAPKSLIYAASSLQSGVPSKFSGGGSGTDFALTISSLQPEDFATYYCQQYSSYPITFGQGTRLEIK | 1 | 1 | 1 | 34 | 0.0545 | 137 | 0.0402 | 149 | 1.52 | 7 | 3.81 | 2 | 2.33 | 6 | 6.16 | 2
3 | H1H6797P: anti-PRLR antibody, human IgG1 Fc; HCVR/LCVR SEQ ID NOs 178/186 (antibody, V domains shown, human IgG1 Fc) VH: EVQLVESGGGLVQPGGSLRLSCIVSGFTFSGSWMSWVRQLPGKGLEWVANIKEDGSDSYYVDSVEGRFTISRDNAKSSLYLQMNSLRVDDTAVYFCARARTVPLHYWGQGTLVTVSS VL: DIQMTQSPSTLSASVGDRVTITCRASQSINIWLAWYQQKPGKAPKLLIYRASYLESGVPSSFAGGGSGTEFTLTISSLQPDDFGTYYCQHYNSYPFTFGQGTKLEIK | 1 | 2 | 1 | 38 | 0.122 | 97 | 0.0691 | 93 | 1.73 | 6 | 6.37 | 1 | 3.12 | 6 | 9.9 | 1
4 | H1H6803P: anti-PRLR antibody, human IgG1 Fc; HCVR/LCVR SEQ ID NOs 226/234 (antibody, V domains shown, human IgG1 Fc) VH: EVQLVESGGGVVRPGGSLRLSCAASGFKFDDYGMTWVRHVPGKGLEWVSGINWNGGRTGYTDSVKGRFTISRDNAKNSLYLQMNSLRAEDTALYHCAGARRDAFDIWGQGTMVTVSS VL: DIQMTQSPSSLSASIGDRVTITCRASQNIIKYLNWYQQNAGKAPKLLIYTASSLQSGVPSRFSGSGSGTDFTLTISSLQPEDFATYYCQQSSSSPYTFGQGTKLEIK | 39 | 1 | 1 | 39 | 0.607 | 184 | 0.461 | 186 | 1.67 | 84 | 2.83 | 32 | 3.37 | 55 | 7.28 | 18
5 | H1H6793P: anti-PRLR antibody, human IgG1 Fc; HCVR/LCVR SEQ ID NOs 146/154 (antibody, V domains shown, human IgG1 Fc) VH: EVQLVESGGGLVQPGGSLRLSCAASGFSFSIYAMSWFRQAPGKGLEWVSAINGRGDGTHYADSVKGRFTISRDNSKTTLYLQMSSLRAEDTAVYYCAKPVMSTNGFDIWGQGTMVTVSS VL: DIQMTQSPSTLSASVGDRVTITCRASQSISSWLAWYQLKPGKAPKLLIYKASNLESGVPSRFSGSGSGTEFTLTISSLQPDDFATYYCQQYNIYWTFGQGTKVEIK | 2 | 2 | 2 | 43 | 0.331 | 153 | 0.347 | 81 | 1.41 | 35 | 3.02 | 11 | 2.22 | 29 | 4.59 | 11
6 | H1H6800P: anti-PRLR antibody, human IgG1 Fc; HCVR/LCVR SEQ ID NOs 194/202 (antibody, V domains shown, human IgG1 Fc) VH: EVQLVESGGGLVQPGRSLRLSCAASGFTFDGYAMHWVRQGPGKGLEWVSGISWYSDTLGYADSVKGRFTISRDNAKNSLYLQMNSLRTEDTAFYYCAKISSSGWAFDYWGQGTLVTVSS VL: EIVLTQSPGTLSLSPGERATLSCRASHSVSSAYLAWYQQKPGQTPRLLIYGTSSRATGIPDRFSGSGSGTDFTLTISRLEPEDFAVYYCQQYGSSPLFTFGPGTKVDIK | 35 | 1 | 1 | 41 | 0.184 | 133 | 0.229 | 79 | 0.972 | 28 | 1.47 | 10 | 1.25 | 30 | 2.48 | 11
